To fix the notation:
B1: V6W (designed binder)
chain: SMEEEWEKAAKEYEKKKKEAIEKHLEKLKAKDKEAAERFLKELEEAAKEYAKDEAKTMSEEEAKRRAKKYKEKVLLSELSEEEQKEIKEAEEKLVRTILKYVEEAAK
B2: E83L (designed binder)
chain: SMEEEVEKAAKEYEKKKKEAIEKHLEKLKAKDKEAAERFLKELEEAAKEYAKDEAKTMSEEEAKRRAKKYKEKVLLSELSEELQKEIKEAEEKLVRTILKYVEEAAK
B3: K29D (designed binder)
chain: SMEEEVEKAAKEYEKKKKEAIEKHLEKLDAKDKEAAERFLKELEEAAKEYAKDEAKTMSEEEAKRRAKKYKEKVLLSELSEEEQKEIKEAEEKLVRTILKYVEEAAK
B4: H24P (designed binder)
chain: SMEEEVEKAAKEYEKKKKEAIEKPLEKLKAKDKEAAERFLKELEEAAKEYAKDEAKTMSEEEAKRRAKKYKEKVLLSELSEEEQKEIKEAEEKLVRTILKYVEEAAK
B5: L28N (designed binder)
chain: SMEEEVEKAAKEYEKKKKEAIEKHLEKNKAKDKEAAERFLKELEEAAKEYAKDEAKTMSEEEAKRRAKKYKEKVLLSELSEEEQKEIKEAEEKLVRTILKYVEEAAK
B6: E82M (designed binder)
chain: SMEEEVEKAAKEYEKKKKEAIEKHLEKLKAKDKEAAERFLKELEEAAKEYAKDEAKTMSEEEAKRRAKKYKEKVLLSELSEMEQKEIKEAEEKLVRTILKYVEEAAK
B7: E104C (designed binder)
chain: SMEEEVEKAAKEYEKKKKEAIEKHLEKLKAKDKEAAERFLKELEEAAKEYAKDEAKTMSEEEAKRRAKKYKEKVLLSELSEEEQKEIKEAEEKLVRTILKYVECAAK
B8: Y101T (designed binder)
chain: SMEEEVEKAAKEYEKKKKEAIEKHLEKLKAKDKEAAERFLKELEEAAKEYAKDEAKTMSEEEAKRRAKKYKEKVLLSELSEEEQKEIKEAEEKLVRTILKTVEEAAK
B9: E4M (designed binder)
chain: SMEMEVEKAAKEYEKKKKEAIEKHLEKLKAKDKEAAERFLKELEEAAKEYAKDEAKTMSEEEAKRRAKKYKEKVLLSELSEEEQKEIKEAEEKLVRTILKYVEEAAK
B10: K29T (designed binder)
chain: SMEEEVEKAAKEYEKKKKEAIEKHLEKLTAKDKEAAERFLKELEEAAKEYAKDEAKTMSEEEAKRRAKKYKEKVLLSELSEEEQKEIKEAEEKLVRTILKYVEEAAK
B11: A35S (designed binder)
chain: SMEEEVEKAAKEYEKKKKEAIEKHLEKLKAKDKESAERFLKELEEAAKEYAKDEAKTMSEEEAKRRAKKYKEKVLLSELSEEEQKEIKEAEEKLVRTILKYVEEAAK
B12: V102C (designed binder)
chain: SMEEEVEKAAKEYEKKKKEAIEKHLEKLKAKDKEAAERFLKELEEAAKEYAKDEAKTMSEEEAKRRAKKYKEKVLLSELSEEEQKEIKEAEEKLVRTILKYCEEAAK
B13: L79A (designed binder)
chain: SMEEEVEKAAKEYEKKKKEAIEKHLEKLKAKDKEAAERFLKELEEAAKEYAKDEAKTMSEEEAKRRAKKYKEKVLLSEASEEEQKEIKEAEEKLVRTILKYVEEAAK
B14: V74F (designed binder)
chain: SMEEEVEKAAKEYEKKKKEAIEKHLEKLKAKDKEAAERFLKELEEAAKEYAKDEAKTMSEEEAKRRAKKYKEKFLLSELSEEEQKEIKEAEEKLVRTILKYVEEAAK
B15: S77D (designed binder)
chain: SMEEEVEKAAKEYEKKKKEAIEKHLEKLKAKDKEAAERFLKELEEAAKEYAKDEAKTMSEEEAKRRAKKYKEKVLLDELSEEEQKEIKEAEEKLVRTILKYVEEAAK
B16: I98S (designed binder)
chain: SMEEEVEKAAKEYEKKKKEAIEKHLEKLKAKDKEAAERFLKELEEAAKEYAKDEAKTMSEEEAKRRAKKYKEKVLLSELSEEEQKEIKEAEEKLVRTSLKYVEEAAK
B17: T57C (designed binder)
chain: SMEEEVEKAAKEYEKKKKEAIEKHLEKLKAKDKEAAERFLKELEEAAKEYAKDEAKCMSEEEAKRRAKKYKEKVLLSELSEEEQKEIKEAEEKLVRTILKYVEEAAK
B18: E42F (designed binder)
chain: SMEEEVEKAAKEYEKKKKEAIEKHLEKLKAKDKEAAERFLKFLEEAAKEYAKDEAKTMSEEEAKRRAKKYKEKVLLSELSEEEQKEIKEAEEKLVRTILKYVEEAAK
B19: A67R (designed binder)
chain: SMEEEVEKAAKEYEKKKKEAIEKHLEKLKAKDKEAAERFLKELEEAAKEYAKDEAKTMSEEEAKRRRKKYKEKVLLSELSEEEQKEIKEAEEKLVRTILKYVEEAAK
B20: L76A (designed binder)
chain: SMEEEVEKAAKEYEKKKKEAIEKHLEKLKAKDKEAAERFLKELEEAAKEYAKDEAKTMSEEEAKRRAKKYKEKVLASELSEEEQKEIKEAEEKLVRTILKYVEEAAK
B21: L94V (designed binder)
chain: SMEEEVEKAAKEYEKKKKEAIEKHLEKLKAKDKEAAERFLKELEEAAKEYAKDEAKTMSEEEAKRRAKKYKEKVLLSELSEEEQKEIKEAEEKVVRTILKYVEEAAK
B22: V95F (designed binder)
chain: SMEEEVEKAAKEYEKKKKEAIEKHLEKLKAKDKEAAERFLKELEEAAKEYAKDEAKTMSEEEAKRRAKKYKEKVLLSELSEEEQKEIKEAEEKLFRTILKYVEEAAK
B23: E5Q (designed binder)
chain: SMEEQVEKAAKEYEKKKKEAIEKHLEKLKAKDKEAAERFLKELEEAAKEYAKDEAKTMSEEEAKRRAKKYKEKVLLSELSEEEQKEIKEAEEKLVRTILKYVEEAAK
B24: E82D (designed binder)
chain: SMEEEVEKAAKEYEKKKKEAIEKHLEKLKAKDKEAAERFLKELEEAAKEYAKDEAKTMSEEEAKRRAKKYKEKVLLSELSEDEQKEIKEAEEKLVRTILKYVEEAAK
B25: Y50G (designed binder)
chain: SMEEEVEKAAKEYEKKKKEAIEKHLEKLKAKDKEAAERFLKELEEAAKEGAKDEAKTMSEEEAKRRAKKYKEKVLLSELSEEEQKEIKEAEEKLVRTILKYVEEAAK
B26: E60W (designed binder)
chain: SMEEEVEKAAKEYEKKKKEAIEKHLEKLKAKDKEAAERFLKELEEAAKEYAKDEAKTMSWEEAKRRAKKYKEKVLLSELSEEEQKEIKEAEEKLVRTILKYVEEAAK
B27: Y70Q (designed binder)
chain: SMEEEVEKAAKEYEKKKKEAIEKHLEKLKAKDKEAAERFLKELEEAAKEYAKDEAKTMSEEEAKRRAKKQKEKVLLSELSEEEQKEIKEAEEKLVRTILKYVEEAAK
B28: E4A (designed binder)
chain: SMEAEVEKAAKEYEKKKKEAIEKHLEKLKAKDKEAAERFLKELEEAAKEYAKDEAKTMSEEEAKRRAKKYKEKVLLSELSEEEQKEIKEAEEKLVRTILKYVEEAAK
B29: E72K (designed binder)
chain: SMEEEVEKAAKEYEKKKKEAIEKHLEKLKAKDKEAAERFLKELEEAAKEYAKDEAKTMSEEEAKRRAKKYKKKVLLSELSEEEQKEIKEAEEKLVRTILKYVEEAAK
B30: A51Q (designed binder)
chain: SMEEEVEKAAKEYEKKKKEAIEKHLEKLKAKDKEAAERFLKELEEAAKEYQKDEAKTMSEEEAKRRAKKYKEKVLLSELSEEEQKEIKEAEEKLVRTILKYVEEAAK
B31: A36P (designed binder)
chain: SMEEEVEKAAKEYEKKKKEAIEKHLEKLKAKDKEAPERFLKELEEAAKEYAKDEAKTMSEEEAKRRAKKYKEKVLLSELSEEEQKEIKEAEEKLVRTILKYVEEAAK
B32: Y13T (designed binder)
chain: SMEEEVEKAAKETEKKKKEAIEKHLEKLKAKDKEAAERFLKELEEAAKEYAKDEAKTMSEEEAKRRAKKYKEKVLLSELSEEEQKEIKEAEEKLVRTILKYVEEAAK
B33: H24D (designed binder)
chain: SMEEEVEKAAKEYEKKKKEAIEKDLEKLKAKDKEAAERFLKELEEAAKEYAKDEAKTMSEEEAKRRAKKYKEKVLLSELSEEEQKEIKEAEEKLVRTILKYVEEAAK

From publication PMC12416549 (2024) come the findings set out here.

The experiment addresses T1, TNFR1 (Homo sapiens, UniProt P19438).
T1 chain: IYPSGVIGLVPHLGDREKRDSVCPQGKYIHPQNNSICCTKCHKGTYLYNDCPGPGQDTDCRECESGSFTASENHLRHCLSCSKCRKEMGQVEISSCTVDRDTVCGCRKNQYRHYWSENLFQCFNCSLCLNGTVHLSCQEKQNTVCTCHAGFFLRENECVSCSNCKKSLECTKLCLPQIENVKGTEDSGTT
Description: yeast display SC50.
Consider B1, for which the “apparent Kd (screen)” value was 0.49 nM.
Then B2, with 1.27 nM; and B3, with 0.49 nM; and B4, with 12.5 nM.
As to B5, the “apparent Kd (screen)” value was 1.16 nM.
Then B6, with 0.79 nM; and B7, with 1.27 nM.
Regarding B8, the “apparent Kd (screen)” value turned out to be 0.49 nM.
Then B9, with 0.653 nM; and B10, with 0.593 nM; and B11, with 0.79 nM.
With B12 the figure was 1.4 nM; with B13, 2.73 nM.
With B14 the figure was 9.41 nM.
For B15, the “apparent Kd (screen)” value came out at 11.4 nM.
With B16 the figure was 11.4 nM.
Then B17, with 2.73 nM; and B18, with 12.5 nM.
With B19 the figure was 7.07 nM; with B20, 4.83 nM; with B21, 0.446 nM.
In the case of B22, the “apparent Kd (screen)” value stood at 13.8 nM.
Regarding B23, the “apparent Kd (screen)” value turned out to be 0.446 nM.
Take B24: the “apparent Kd (screen)” value worked out at 1.05 nM.
Then B25, with 10.4 nM; and B26, with 0.446 nM.
For the molecule B27, the “apparent Kd (screen)” value worked out at 5.84 nM.
B28: the “apparent Kd (screen)” value is 0.539 nM.
Then B29, with 9.41 nM.
With B30 the figure was 0.446 nM; with B31, 0.446 nM.
With B32 the figure was 1.69 nM; with B33, 1.4 nM.
